Target: T1, exoplasmic domain of human CD40 (GST-CD40) (Homo sapiens, UniProt P25942)
T1 construct: The cDNA for the exoplasmic domain of CD40 (amino acids 20-212); made in house; host or cells: E. coli, pGEX-2T
Test: GST-CD40 binding and competition assay with recombinant Hsp70 and its domains
Procedure: For binding assays with recombinant Hsp70 and its domains, 3 μM His6-Hsp70 or its His6-tagged domains were incubated with 2 mM ATP, 2 mM ADP or 2 mM ADP and 28 μM peptide C in 50 μl binding buffer (10 mM MOPS/KOH, pH 7.2, 150 mM KCl and 3 mM MgCl2) for 30 min at 37° C. In competition experiments binding was probed with either a 10-fold excess of Hsp70, the two domains, or DnaK, or with a 5-fold excess of Hip or Bag 1 for 10 min at 0° C. To this end, Hsp70, N70, C70 and DnaK were preincubated with ADP, ATP and peptide C as described above. For comparison of CD40 binding of Hsp70 and its N-terminal domain, Hsp70 was preincubated in the presence or absence (mock treatment) of a 30-fold molar excess of peptide C. 3 μM of GST or GST-CD40 was added to the samples and incubated for 20 min at 16° C. For titration of peptide C, 5- to 50-fold excess of peptide C (15-150 μM) was added to the preincubation of Hsp70. Thereafter the samples were combined with 20 μl of 1% BSA-treated Glutathione Sepharose 4 Fast Flow and incubated in the presence of 2 mM DTT for another 20 min at 16° C. Unbound proteins were removed by washing the beads three times with 1 ml PBS, and immobilized proteins eluted with 30 μl elution buffer for 20 min at 22° C. 10 μl of the eluates were subjected to SDS-PAGE and analyzed by immunoblotting using a Penta-His-antibody (Quiagen). Blot signals were quantified by Quantity One (Biorad).
Details for FIG. 3. Binding of Hsp70 to CD40 is direct and depends on ADP. A. Hela-cell lysates were incubated with GST (control), or GST-CD40 in the amounts indicated. Thereafter samples were affinity purified on glutathione-Sepharose as outlined in Experimental Procedures, subjected to SDS-PAGE and analyzed by immunoblotting with antibodies directed against Hsc70 and Hsp70 (upper lanes), and against Hsp90 (lower lanes). B. Human recombinant His6-tagged Hsp70 was incubated with ATP, ADP, or an excess of peptide C, followed by addition of GST-CD40 or GST alone. After affinity purification samples were analyzed by immunoblotting as described in A, using antibodies directed against the His6-tag. C. Recombinant human His6-tagged Hsp70 was incubated with peptide C, either in the presence or absence of ADP. The reactions were then incubated with ANA1-cell lysates as described in Experimental Procedures. Protein bound to Hsp70 was analyzed by affinity purification on Ni-NTA-agarose and immunoblotting with antibodies directed against CD40.
Details for FIG. 4. Hsp70 binding to CD40 is mediated by the N-terminal ATPase domain and is competed by Hip. A. Human His6-tagged Hsp70, its N- or C-terminal domains, or recombinant bacterial DnaK was incubated either with GST-CD40, or with GST. B. Recombinant DnaK was incubated with ATP, ADP, or an excess of peptide C, followed by addition of GST-CD40 or GST alone. C. His6-tagged N-terminal domain of Hsp70 (N70) was incubated in the presence of ATP or ADP, followed by incubation with a 10-fold molar excess of Hsp70 in the presence of ADP or ATP. D: Recombinant human His6-tagged Hsp70 protein was incubated with a 5-fold molar excess of either recombinant Hip protein or Bag-1, and with GST-CD40 or GST as a control. Bound protein was analyzed after affinity purification on glutathione-Sepharose by immunoblotting with an antibody directed against the N-terminal His6-tags or with an antibody directed against DnaK.
Details for FIG. 5. Peptide substrate stimulates Hsp70 binding to CD40. A. His6-tagged Hsp70 was incubated with increasing concentrations of peptide C as indicated in the Figure, and binding to GST-CD40 analyzed by immunoblotting with antibodies directed against the His6-tag. The lower panel is a quantitation of the data. B. Equivalent concentrations (3 μM) of His6-tagged Hsp70 (in the presence of a 30-fold molar excess of peptide C) or His6-tagged N70 was incubated with GST-CD40, and bound protein was analyzed as described above.

T1 sequence (P25942 20-212): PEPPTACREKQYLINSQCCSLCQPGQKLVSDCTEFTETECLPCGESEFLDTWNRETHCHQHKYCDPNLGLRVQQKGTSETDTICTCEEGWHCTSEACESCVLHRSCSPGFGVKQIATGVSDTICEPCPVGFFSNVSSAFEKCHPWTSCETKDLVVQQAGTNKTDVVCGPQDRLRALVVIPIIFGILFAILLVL

| binding efficiency to CD40, substrate-saturated Hsp70 versus N-terminal domain (3 μM each, ADP states, Hsp70 with 30-fold molar excess of peptide C) | competition for the binding of full-length Hsp70 to CD40 (ADP, 5-fold molar excess of competitor) | Hsp70 binding to CD40 in the presence of ADP (3 μM His6-Hsp70, 2 mM ADP) | Hsp70 binding to CD40 in the presence of ATP (3 μM His6-Hsp70, 2 mM ATP) | Substance | direct binding to CD40 (GST-CD40 pull down), nucleotide dependence (ADP versus ATP) |
| --- | --- | --- | --- | --- | --- |
| bound to CD40 with similar efficiencies | efficiently competed | – | – | N70: Recombinant N-terminal ATPase domain of human Hsp70, residues 5-381 (SEQ ID NO: 1) | bound to CD40 in the presence of ADP but not ATP |
| – | – | only seen in the presence of ADP | barely detectable | Hsp70: Recombinant human heat shock protein 70, expressed and purified as His-tagged protein | – |

Reference: US20040071656A1, “Modulation of heat-shock-protein-based immunotherapies” (priority 2001, published 2004)
